Results as given in US20200199241A1 (Chugai, published 2020).
Changes are numbered by the printed parent chain. Numbers in names are those of the source.

B1: IgG1-F285 (antibody)
heavy: QVQLQESGPGLVKPSETLSLTCAVSGHSISHDHAWSWVRQPPGEGLEWIGFISYSGITNYNPSLQGRVTISRDNSKNTLYLQMNSLRAEDTAVYYCARSLARTTAMDYWGEGTLVTVSSASTKGPSVFPLAPSSKSTSGGTAALGCLVKDYFPEPVTVSWNSGALTSGVHTFPAVLQSSGLYSLSSVVTVPSSSLGTQTYICNVNHKPSNTKVDKKVEPKSCDKTHTCPPCPAPELLGGPSVFLFPPKPKDTLYISRTPEVTCVVVDVSHEDPEVKFNWYVDGVEVHNAKTKPREEQYNSTYRVVSVLTPLHQDWLNGKEYKCKVSNKALPAPIEKTISKAKGQPREPQVYTLPPSRDELTKNQVSLTCLVKGFYPSDIAVEWESNGQPENNYKTTPPVLDSDGSFFLYSKLTVDKSRWQQGNVFSCSVFHEALHYHYTQKSLSLSP
light: not shown
notes: EU numbering; copies: 2 + 2
B2: IgG1-F316 (antibody)
heavy: B1 heavy with S241K, D272F, P310V, F430Y
light: not shown
notes: EU numbering; copies: 2 + 2
B3: IgG1-F349 (antibody)
heavy: B1 heavy with S241K, L311P, F430L
light: not shown
notes: EU numbering; copies: 2 + 2
B4: IgG1-F298 (antibody)
heavy: B1 heavy with P310V, Q313A, D314A, F430Y
light: not shown
notes: EU numbering; copies: 2 + 2
B5: IgG1-F308 (antibody)
heavy: B1 heavy with S241K, Y254W, E384A, F430Y
light: not shown
notes: EU numbering; copies: 2 + 2
B6: IgG1-F328 (antibody)
heavy: B1 heavy with S241K, D272F, F430I
light: not shown
notes: EU numbering; copies: 2 + 2
B7: IgG1-F299 (antibody)
heavy: B1 heavy with S241K, Q313A, F430Y
light: not shown
notes: EU numbering; copies: 2 + 2
B8: IgG1-F300 (antibody)
heavy: B1 heavy with S241K, D314A, F430Y
light: not shown
notes: EU numbering; copies: 2 + 2
B9: IgG1-F335 (antibody)
heavy: B1 heavy with S241K, T258E, D272F, F430I
light: not shown
notes: EU numbering; copies: 2 + 2
B10: IgG1-F359 (antibody)
heavy: B1 heavy with Y254M, P259V, T309Q, P310V, F430I
light: not shown
notes: EU numbering; copies: 2 + 2
B11: IgG1-F360 (antibody)
heavy: B1 heavy with Y254M, P259V, T309Q, P310V, F430V
light: not shown
notes: EU numbering; copies: 2 + 2
B12: IgG1-F310 (antibody)
heavy: B1 heavy with S241K, Y254W, E384A, F430I
light: not shown
notes: EU numbering; copies: 2 + 2
B13: IgG1-F331 (antibody)
heavy: B1 heavy with S241K, D272F, P389E, F430M
light: not shown
notes: EU numbering; copies: 2 + 2
B14: IgG1-F326 (antibody)
heavy: B1 heavy with S241K, D272F, T309Q, P310V, Q313A, F430M
light: not shown
notes: EU numbering; copies: 2 + 2
B15: IgG1-F330 (antibody)
heavy: B1 heavy with S241K, D272F, L311E, F430M
light: not shown
notes: EU numbering; copies: 2 + 2
B16: IgG1-F358 (antibody)
heavy: B1 heavy with S241K, T309Q, P310V, F430M
light: not shown
notes: EU numbering; copies: 2 + 2
B17: IgG1-F288 (antibody)
heavy: B1 heavy with T258E, P310V, E384A, F430M
light: not shown
notes: EU numbering; copies: 2 + 2
B18: IgG1-F290 (antibody)
heavy: B1 heavy with T258E, P310V, E384A, F430Y
light: not shown
notes: EU numbering; copies: 2 + 2
B19: IgG1-F302 (antibody)
heavy: B1 heavy with T258E, T309P, P310V, F430M
light: not shown
notes: EU numbering; copies: 2 + 2
B20: IgG1-F317 (antibody)
heavy: B1 heavy with S241K, D272F, F430Y
light: not shown
notes: EU numbering; copies: 2 + 2
B21: IgG1-F322 (antibody)
heavy: B1 heavy with S241K, D272F, T309P, F430M
light: not shown
notes: EU numbering; copies: 2 + 2
B22: IgG1-F286 (antibody)
heavy: B1 heavy with S241K, E384A, F430Y
light: not shown
notes: EU numbering; copies: 2 + 2
B23: IgG1-F343 (antibody)
heavy: B1 heavy with S241K, D272F, F430L
light: not shown
notes: EU numbering; copies: 2 + 2
B24: IgG1-F296 (antibody)
heavy: B1 heavy with P310V, Q313A, F430Y
light: not shown
notes: EU numbering; copies: 2 + 2
B25: IgG1-F325 (antibody)
heavy: B1 heavy with S241K, D272F, T309Q, Q313A, F430M
light: not shown
notes: EU numbering; copies: 2 + 2
B26: IgG1-F311 (antibody)
heavy: B1 heavy with S241K, Y254W
light: not shown
notes: EU numbering; copies: 2 + 2
B27: IgG1-F293 (antibody)
heavy: B1 heavy with E382A, E384A, F430I
light: not shown
notes: EU numbering; copies: 2 + 2
B28: IgG1-F337 (antibody)
heavy: B1 heavy with S241K, D272F, T309Q, P310V, Q313A, F430I
light: not shown
notes: EU numbering; copies: 2 + 2
B29: IgG1-F320 (antibody)
heavy: B1 heavy with S241K, N327G, E384A, F430I
light: not shown
notes: EU numbering; copies: 2 + 2
B30: IgG1-F353 (antibody)
heavy: B1 heavy with S241K, P310V, L311R, F430L
light: not shown
notes: EU numbering; copies: 2 + 2
B31: IgG1-F305 (antibody)
heavy: B1 heavy with T258E, E384A, F430M
light: not shown
notes: EU numbering; copies: 2 + 2
B32: IgG1-F339 (antibody)
heavy: B1 heavy with S241K, D272F, L311E, F430I
light: not shown
notes: EU numbering; copies: 2 + 2
B33: IgG1-F354 (antibody)
heavy: B1 heavy with S241K, T309Q, F430L
light: not shown
notes: EU numbering; copies: 2 + 2
B34: IgG1-F297 (antibody)
heavy: B1 heavy with P310V, D314A, F430Y
light: not shown
notes: EU numbering; copies: 2 + 2
B35: IgG1-F321 (antibody)
heavy: B1 heavy with S241K, D272F, N327G, F430M
light: not shown
notes: EU numbering; copies: 2 + 2
B36: IgG1-F287 (antibody)
heavy: B1 heavy with E382A, E384A
light: not shown
notes: EU numbering; copies: 2 + 2
B37: IgG1-F301 (antibody)
heavy: B1 heavy with S241K, Q313A, D314A, F430Y
light: not shown
notes: EU numbering; copies: 2 + 2
B38: IgG1-F333 (antibody)
heavy: B1 heavy with S241K, D272F, T309Q, P310V, L311E, Q313A, F430M
light: not shown
notes: EU numbering; copies: 2 + 2
B39: IgG1-F306 (antibody)
heavy: B1 heavy with Y254W, E384A, F430M
light: not shown
notes: EU numbering; copies: 2 + 2
B40: IgG1-F292 (antibody)
heavy: B1 heavy with S241K, E384A, F430I
light: not shown
notes: EU numbering; copies: 2 + 2
B41: IgG1-F356 (antibody)
heavy: B1 heavy with S241K, D272F, L311E, P389E, F430M
light: not shown
notes: EU numbering; 'Y308P' as printed, probably V308P; copies: 2 + 2
B42: IgG1-F324 (antibody)
heavy: B1 heavy with S241K, D272F, T309Q, F430M
light: not shown
notes: EU numbering; copies: 2 + 2
B43: IgG1-F294 (antibody)
heavy: B1 heavy with S241K
light: not shown
notes: EU numbering; copies: 2 + 2
B44: IgG1-F295 (antibody)
heavy: B1 heavy with S241K, P310V, E382A, E384A
light: not shown
notes: EU numbering; copies: 2 + 2
B45: IgG1-F323 (antibody)
heavy: B1 heavy with S241K, T258E, D272F, F430M
light: not shown
notes: EU numbering; copies: 2 + 2
B46: IgG1-F303 (antibody)
heavy: B1 heavy with T309P, P310V, F430Y
light: not shown
notes: EU numbering; copies: 2 + 2
B47: IgG1-F350 (antibody)
heavy: B1 heavy with S241K, L311R, F430L
light: not shown
notes: EU numbering; copies: 2 + 2
B48: IgG1-F336 (antibody)
heavy: B1 heavy with S241K, D272F, T309Q, Q313A, F430I
light: not shown
notes: EU numbering; copies: 2 + 2
B49: IgG1-F314 (antibody)
heavy: B1 heavy with T258E, P310V, Q313A, D314A, F430Y
light: not shown
notes: EU numbering; copies: 2 + 2
B50: IgG1-F352 (antibody)
heavy: B1 heavy with S241K, P310V, L311P, F430L
light: not shown
notes: EU numbering; copies: 2 + 2
B51: IgG1-F338 (antibody)
heavy: B1 heavy with S241K, D272F, N288E, F430I
light: not shown
notes: EU numbering; copies: 2 + 2
B52: IgG1-F344 (antibody)
heavy: B1 heavy with S241K, F430L
light: not shown
notes: EU numbering; copies: 2 + 2
B53: IgG1-F318 (antibody)
heavy: B1 heavy with S241K, F430I
light: not shown
notes: EU numbering; copies: 2 + 2
B54: IgG1-F313 (antibody)
heavy: B1 heavy with S241K, T309P, P310V, F430Y
light: not shown
notes: EU numbering; copies: 2 + 2
B55: IgG1-F304 (antibody)
heavy: B1 heavy with Y254W, F430Y
light: not shown
notes: EU numbering; copies: 2 + 2
B56: IgG1-F315 (antibody)
heavy: B1 heavy with S241K, P310V, F430Y
light: not shown
notes: EU numbering; copies: 2 + 2
B57: IgG1-F334 (antibody)
heavy: B1 heavy with S241K, D272F, N327G, F430I
light: not shown
notes: EU numbering; copies: 2 + 2
B58: IgG1-F307 (antibody)
heavy: B1 heavy with S241K, Y254W, E384A, F430M
light: not shown
notes: EU numbering; copies: 2 + 2
B59: IgG1-F289 (antibody)
heavy: B1 heavy with T258E, P310V, F430Y
light: not shown
notes: EU numbering; copies: 2 + 2
B60: IgG1-F312 (antibody)
heavy: B1 heavy with S241K, Y254W, P310V, E382A, E384A
light: not shown
notes: EU numbering; copies: 2 + 2

Each binder was assayed against T1, human FcRn (soluble human FcRn complexed with β2-microglobulin) (human, UniProt P61769 21-119, limits assumed) (assay: SPR, pH 7.0;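 also: antibodies captured on a Protein L sensor chip with human FcRn injected as analyte, KD calculated from fitted association and dissociation rate constants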).
T1 construct: also called hFcRn

| Kd [nM] | Binder |
| --- | --- |
| 99 | B1 |
| 700 | B2 |
| 150 | B3 |
| 480 | B4 |
| 19 | B5 |
| 19 | B6 |
| 94 | B7 |
| 83 | B8 |
| 15 | B9 |
| 420 | B10 |
| 1300 | B11 |
| 94 | B12 |
| 30 | B13 |
| 75 | B14 |
| 36 | B15 |
| 100 | B16 |
| 190 | B17 |
| 460 | B18 |
| 190 | B19 |
| 110 | B20 |

| Kd [nM] | Binder |
| --- | --- |
| 92 | B21 |
| 120 | B22 |
| 32 | B23 |
| 490 | B24 |
| 21 | B25 |
| 28 | B26 |
| 53 | B27 |
| 56 | B28 |
| 20 | B29 |
| 1100 | B30 |
| 27 | B31 |
| 19 | B32 |
| 28 | B33 |
| 510 | B34 |
| 32 | B35 |
| 100 | B36 |
| 72 | B37 |
| 74 | B38 |
| 36 | B39 |
| 23 | B40 |

| Kd [nM] | Binder |
| --- | --- |
| 34 | B41 |
| 28 | B42 |
| 110 | B43 |
| 680 | B44 |
| 27 | B45 |
| 670 | B46 |
| 170 | B47 |
| 14 | B48 |
| 320 | B49 |
| 600 | B50 |
| 7.7 | B51 |
| 30 | B52 |
| 18 | B53 |
| 650 | B54 |
| 16 | B55 |
| 680 | B56 |
| 19 | B57 |
| 36 | B58 |
| 480 | B59 |
| 450 | B60 |
